From publication PMC4445002, “Efficient inhibition of tumor angiogenesis and growth by a synthetic peptide blocking S100A4-methionine aminopeptidase 2 interaction” (Molecular Therapy. Methods & Clinical Development, 2015)

Assays:
MSS31 cells = test: DNA synthesis (BrdU uptake ELISA) in retrovirally infected cells; type: cell-based, mouse; conditions: retroviral overexpression, 10% FBS and 10 μmol/l BrdU for 6 hours, OD450
Description: cDNA fragments encoding amino acids 1–169 [MetAP2(1–169)] or 1–229 [MetAP2(1–229)] of MetAP2 were PCR amplified and inserted into the multicloning site (SalI/NotI site) of the pRX-puro vector (Supplementary Figure S1).
DNA synthesis was quantified by measuring bromodeoxyuridine (BrdU) incorporation using the Cell Proliferation ELISA BrdU kit (Roche Applied Science, Penzberg, Upper Bavaria, Germany). MSS31 cells cultured for 24 hours in a medium containing 0.2% serum were stimulated with a medium containing 10% FBS and 10 μmol/l BrdU for 6 hours. The cells were harvested and BrdU uptake was measured according to the manufacturer’s protocol. Briefly, the cells were fixed, denatured, and incubated with the monoclonal anti-BrdU-peroxidase antibody. The immune complexes were then detected by the subsequent reaction with tetramethyl-benzidine. The reaction product was quantified by measuring the absorbance (OD450) using a scanning multiwell spectrophotometer.

S100A4 = test: FRET acceptor-photobleaching analysis in live HeLa cells; type: binding; conditions: ECFP fusion cotransfected with EYFP-S100A4, acceptor photobleaching, n = 8–11, **P < 0.01, ***P < 0.001

Molecule | serum-induced DNA synthesis (MSS31 cells) | FRET efficiency with EYFP-S100A4 vs negative controls (S100A4)
MetAP2(1–169): truncated MetAP2, amino acids 1–169, control, expressed from retrovirus (protein, UniProt P50579 1-169, looked up, fragment) MAGVEEVAASGSHLNGDLDPDDREEGAASTAEEAAKKKRRKKKKSKGPSAAGEQEPDKESGASVDEVARQLERSALEDKERDEDDEDGDGDGDGATGKKKKKKKKKRGPKVQTDPPSVPICDLYPNGVFPKGQECEYPPTQDGRTAAWRTTSEEKKALDQASEEIWNDF | but not MetAP2(1–169), resulted in a marked suppression of serum-induced DNA synthesis | 
MetAP2(1–229): truncated form of MetAP2, amino acids 1–229, expressed from retrovirus (protein, UniProt P50579 1-229, looked up, fragment) MAGVEEVAASGSHLNGDLDPDDREEGAASTAEEAAKKKRRKKKKSKGPSAAGEQEPDKESGASVDEVARQLERSALEDKERDEDDEDGDGDGDGATGKKKKKKKKKRGPKVQTDPPSVPICDLYPNGVFPKGQECEYPPTQDGRTAAWRTTSEEKKALDQASEEIWNDFREAAEAHRQVRKYVMSWIKPGMTMIEICEKLEDCSRKLIKENGLNAGLAFPTGCSLNNCA | resulted in a marked suppression of serum-induced DNA synthesis | 
ECFP-MetAP2: ECFP-tagged full-length MetAP2 expressed in HeLa cells (protein, left off: ECFP, end not stated, kept, ECFP-tagged full-length MetAP2 expressed in HeLa cells) AGVEQAASFGGHLNGDLDPDDREEGTSSTAEEAAKKKRRKKKKGKGAVSAVQQELDKESGALVDEVAKQLESQALEEKERDDDDEDGDGDADGATGKKKKKKKKKRGPKVQTDPPSVPICDLYPNGVFPKGQECEYPPTQDGRTAAWRTTSEEKKALDQASEEIWNDFREAAEAHRQVRKYVMSWIKPGMTMIEICEKLEDCSRKLIKENGLNAGLAFPTGCSLNNCAAHYTPNAGDTTVLQYDDICKIDFGTHISGRIIDCAFTVTFNPKYDILLTAVKDATNTGIKCAGIDVRLCDVGEAIQEVMESYEVEIDGKTYQVKPIRNLNGHSIGPYRIHAGKTVPIVKGGEATRMEEGEVYAIETFGSTGKGVVHDDMECSHYMKNFDVGHVPIRLPRTKHLLNVINENFGTLAFCRRWLDRLGESKYLMALKNLCDLGIVDPYPPLCDIKGSYTAQFEHTILLRPTCKEVVSRGDDY |  | significantly higher than that of the negative controls
